{"source": "paper PMC2646873", "about": "(Biochemistry, 2008)", "proteins": {"B1": {"name": "CysM (Rv1336) (enzyme)", "chain": "MTRYDSLLQALGNTPLVGLQRLSPRWDDGRDGPHVRLWAKLEDRNPTGSIKDRPAVRMIEQAEADGLLRPGATILEPTSGNTGISLAMAARLKGYRLICVMPENTSVERRQLLELYGAQIIFSAAEGGSNTAVATAKELAATNPSWVMLYQYGNPANTDSHYCGTGPELLADLPEITHFVAGLGTTGTLMGTGRFLREHVANVKIVAAEPRYGEGVYALRNMDEGFVPELYDPEILTARYSVGAVDAVRRTRELVHTEGIFAGISTGAVLHAALGVGAGALAAGERADIALVVADAGWKYLSTGAYAGSLDDAETALEGQLWA"}}, "target": "the molecule itself", "assay": "crystal structure"}
{"protein": "B1", "values": [{"measurement": "stoichiometry N", "result": 2}]}
